Patent US11739318B1, “Modified biosensors and biocatalysts and methods of use” (priority 2017, dated 2023)

Tests used:
[1] = test system: ccMA; assay: Intracellular ccMA sensing with CatM sensor in strain CJ184, flow cytometry; format: cell-based, P. putida
Description: FIG. 14A represents the Acinetobacter baylyi CatM promoter region used for selection of ccMA sensing in P. putida KT2440. The regions that were partially diversified or completely randomized are marked ‘red’ and the mutations pursued are labeled. For example −10 and −35 sites were partially randomized for saturation, the ribosome binding site (RBS) was made compatible to the consensus sequence AAGGAG followed by eight bases to the start codon “ATG” of the reporter. Overall the library diversity was expected to be well above 60,000. Using a method similar to what has been described in Example 1-3, catM gene, diversified regulatory region, and sfgfp were inserted into the pBTL2 backbone. The completed circular plasmids, carrying Kanamycin resistance marker, were then transformed into electrocompetent cells of P. putida strain CJ184. The transformation gave well above 60,000 colonies to cover the library adequately. […] Post 16 h of growth at 30° C., the samples were analyzed on a flow cytometer (BD FACSAria III). […] Post third round of sorted population, a fraction was plated on LB agar+Kan50 plates and a few colonies evaluated for PCA, Benzoate and Catechol response, considering CJ184 strain is capable of converting them all to final product ccMA. […]

[2] = individual mutations, hydrolysis of OPs; cited from earlier work
[3] = test system: pNP sensor; assay: Raw whole cell fluorescence with pNP sensor and sfGFP-PON1 under positive feedback regulation, flow cytometer; format: cell-based, E. coli; settings: mean of duplicate cultures ± SD
Description: FIGS. 16A-16D show ‘Catalyze’ and ‘sense’ system for hydrolysis reactions. […] UI: background fluorescence from cells without any pNP source to induce the TF; […]; pNP: TF induced by exogenously supplied pNP as a control/reference. […] Relative activity levels are distinguishable by eye.
The technique described here (referred to in this example as “smart microbial cells” or SMC; e.g., FIGS. 1A and 1B) allows for catalysis and sensing in the same microbial cell. For a practical library application, we simplified and improved the signal to noise ratio of the biosensor. This was achieved by gene fusing the PON1 to the GFP so that the TF is also regulating the catalytic enzyme expression as well (scheme shown in FIG. 1B). This fusion is expected to have three distinct effects. First, it provides positive feedback, such that more the activity, the more PON1 is expressed, and in turn further ‘feeds’ the activity. […] Second, feedback will amplify the already present correlation between activity and GFP expression. Third, for suitably chosen GFP, the fluorescence signal conveniently reports the amount of fused PON1 present, allowing normalization for specific activity.
. Based on the catalytic efficiency and the cytoplasmic concentration of the hydrolase, PXN hydrolysis results in a correlated pNP production inside the microbial cell that ultimately determines activation of the pNP sensor and accumulation of sfGFP in the cells. […] When pNP was used as an inducer, such that the expression of sfGFP-PON1 expression is independent of the catalytic efficiency of PON1, modest differences in cell fluorescence were still captured across the PON1 variants indicating V346A mutation could be detrimental to PON1 expression and stability (FIG. 16C, Table 6).

[4] = PON1 expression and solubility from fluorescence of the cell lysate; parameters: species or system E. coli; settings: based on the fluorescence of the cell lysate
Description: The clones were further confirmed for improved activity by using clear cell lysates that were normalized for sfGFP fluorescence (the enzyme variants expressed as sfGFP-PON1 fusion by inducing the same clones with 200 μM pNP) and assayed for activity at different concentrations of PXN. […] The most notable aspect of comparison between the in vivo activity measurements (FIG. 17D) and the in vitro measurements (FIG. 17E) is the relative ranking of the different PON1 variants. While Lib1-C3.3 did show highest Vmax in both formats of experiment, the Lib2-D12 was the lowest in both cases. […] The solubility of other PON1 variants ranged between these two extreme values.

[5] = test system: PXN; assay: Whole cell catalysis and sensing of PON1 clones at varying PXN (contrast ratio); format: cell-based, E. coli; settings: scaffold PON1-H115W
Description: (§1) FIGS. 17A-17G show evolution of PON1. […] Residue positions varied in library construction are indicated. […] The circled region is magnified (inset) for easy visualization of the bright colony. […] The contrast ratio is defined as total fluorescence of the cells in the presence of PXN over the background fluorescence of the cells in the absence of PXN. […] The product, pNP, is measured by absorbance (410 nm). Error bars are standard deviation from two independent assays with different fractions from size exclusion chromatography. […] Error bars are the standard deviation of two independent assays using elution fractions from first half and second half of the chromatogram peak from size exclusion chromatography.
In order to efficiently screen the library, the biosensor/biocatalyst plasmid consisting of variants of PON1 was directly transferred to high transformation efficiency DH5α cells. […] The colony picking can further be made more stringent by using lower PXN (for example 100 μM) in the growth media and colonies selected based on the fluorescence intensity under an illuminator.
The clones were further confirmed for improved activity by using clear cell lysates that were normalized for sfGFP fluorescence (the enzyme variants expressed as sfGFP-PON1 fusion by inducing the same clones with 200 μM pNP) and assayed for activity at different concentrations of PXN. […]

[6] = Paraoxonase activity of purified PON1 variants (pNP absorbance 410 nm); format: biochemical; settings: 400 μM PXN
Description: as §1
Finally, the gene for top PON1 variant Lib1-C3.3 (H115W, L69V, K70Q, Y71L, G73A) and the scaffold (H115W) were transferred to a pRSF-1b vector (Novagen) and expressed as a C-terminal 6×His-tagged protein. Post two-step purification using affinity column and a size exclusion chromatography, pure fractions were combined and tested for activity at varying concentrations of PXN. […]

B1: CatM_A9: CatM regulated promoter variant for reduced signal output, SEQ ID NO: 23 (nucleic acid)
DNA: TTATACGCCCTAATTGGTTTTATATACCTTTTTAGTATGCAAAAATACCAAATTGGTGTGGATTTTTATTATTACATTAATTTACAGTATGTAAATAGTATTTATTGAAAAGAAGATGGACCG
modifications: listed as DNA, chemistry not fully specified
- fluorescence and dose-response ([1]; compared with CatM_C2): weaker fluorescence but very similar dose-response as the CatM_C2

B2: CatM_C2.9: CatM variant V97I, G127A, T128A, L147V with weaker ccMA sensitivity, SEQ ID NO: 25 (protein)
chain: MELRHLRYFVTVVEEQSISKAAEKLCIAQPPLSRQIQKLEEELGIQLFERGFRPAKVTEAGMFFYQHAVQILTHTAQASSMAKRIATVSQTLRIGYISSLLYGLLPEIIYLFRQQNPEIHIELIECAAKDQINALKQGKIDLGFGRVKITDPAIRRIVLHKEQLKLAIHKHHHLNQFAATGVHLSQIIDEPMLLYPVSQKPNFATFIQSLFTELGLVPSKLTEIREIQLALGLVAAGEGVCIVPASAMDIGVKNLLYIPILDDDAYSPISLAVRNMDHSNYIPKILACVQEVFATHHIRPLIE
modifications: CatM_C2.9
- ccMA titer for dose-response (low sensitivity) ([1]; CJ184): > 10 mM

B3: L69V: PON1 individual point mutation L69V from the literature (protein, UniProt P27169 2-355, looked up, variant L69V)
Serum …: AKLIALTLLGMGLALFRNHQSSYQTRLNALREVQPVELPNCNLVKGIETGSEDLEILPNGLAFISSGVKYPGIKSFNPNSPGKILLMDLNEEDPTVLELGITGSKFDVSSFNPHGISTFTDEDNAMYLLVVNHPDAKSTVELFKFQEEEKSLLHLKTIRHKLLPNLNDIVAVGPEHFYGTNDHYFLDPYLQSWEMYLGLAWSYVVYYSPSEVRVVAEGFDFANGINISPDGKYVYIAELLAHKIHVYEKHANWTLTPLKSLDFNTLVDNISVDPETGDLWVGCHPNGMKIFFYDSENPPASEVLRIQNILTEEPKVTQVYAENGTVLQGSTVASVYKGKLLIGTVFHKALYCEL
- higher catalytic efficiency over the wild-type [2]: four- to sixteen and four

B4: V346A: published PON1 variant with mutation V346A (protein, UniProt P27169 2-355, looked up, variant V346A)
Serum …: AKLIALTLLGMGLALFRNHQSSYQTRLNALREVQPVELPNCNLVKGIETGSEDLEILPNGLAFISSGLKYPGIKSFNPNSPGKILLMDLNEEDPTVLELGITGSKFDVSSFNPHGISTFTDEDNAMYLLVVNHPDAKSTVELFKFQEEEKSLLHLKTIRHKLLPNLNDIVAVGPEHFYGTNDHYFLDPYLQSWEMYLGLAWSYVVYYSPSEVRVVAEGFDFANGINISPDGKYVYIAELLAHKIHVYEKHANWTLTPLKSLDFNTLVDNISVDPETGDLWVGCHPNGMKIFFYDSENPPASEVLRIQNILTEEPKVTQVYAENGTVLQGSTVASVYKGKLLIGTAFHKALYCEL
- higher catalytic efficiency over the wild-type [2]: four- to sixteen
- Raw whole cell fluorescence intensity, PXN (1.6 mM) ([3]; exogenous paraoxon 1.6 mM): 895 ± 39
- Raw whole cell fluorescence intensity, pNP (200 μM) ([3]; induced with exogenous pNP 200 μM): 6263 ± 57
- Raw whole cell fluorescence intensity, UI ([3]; uninduced, no pNP source): 174 ± 29

B5: Lib2-D12: PON1 clone from Lib2, H115W scaffold with F222I, F292I (protein, UniProt P27169 2-355, looked up, variant H115W F222I F292I)
Serum …: AKLIALTLLGMGLALFRNHQSSYQTRLNALREVQPVELPNCNLVKGIETGSEDLEILPNGLAFISSGLKYPGIKSFNPNSPGKILLMDLNEEDPTVLELGITGSKFDVSSFNPWGISTFTDEDNAMYLLVVNHPDAKSTVELFKFQEEEKSLLHLKTIRHKLLPNLNDIVAVGPEHFYGTNDHYFLDPYLQSWEMYLGLAWSYVVYYSPSEVRVVAEGFDIANGINISPDGKYVYIAELLAHKIHVYEKHANWTLTPLKSLDFNTLVDNISVDPETGDLWVGCHPNGMKIIFYDSENPPASEVLRIQNILTEEPKVTQVYAENGTVLQGSTVASVYKGKLLIGTVFHKALYCEL
- protein yield compared to the scaffold [4]: 50%
- contrast ratio higher than the scaffold [5]: 2 fold

B6: Lib1-C3.3: top PON1 variant (H115W, L69V, K70Q, Y71L, G73A) (protein, UniProt P27169 2-355, looked up, variant H115W L69V K70Q Y71L G73A)
Serum …: AKLIALTLLGMGLALFRNHQSSYQTRLNALREVQPVELPNCNLVKGIETGSEDLEILPNGLAFISSGVQLPAIKSFNPNSPGKILLMDLNEEDPTVLELGITGSKFDVSSFNPWGISTFTDEDNAMYLLVVNHPDAKSTVELFKFQEEEKSLLHLKTIRHKLLPNLNDIVAVGPEHFYGTNDHYFLDPYLQSWEMYLGLAWSYVVYYSPSEVRVVAEGFDFANGINISPDGKYVYIAELLAHKIHVYEKHANWTLTPLKSLDFNTLVDNISVDPETGDLWVGCHPNGMKIFFYDSENPPASEVLRIQNILTEEPKVTQVYAENGTVLQGSTVASVYKGKLLIGTVFHKALYCEL
- protein yield compared to the scaffold [4]: 95%
- turnover number higher than the starting sequence [6]: approximately thirty
- linear rate exceeding that of PON1-H115W ([6]; at ten-fold lower protein concentration): three
